Data as given in patent publication US20230190900 (published 2023).

T1: human FcγRIIa (CD32A) (human, UniProt P12318)
T1 chain: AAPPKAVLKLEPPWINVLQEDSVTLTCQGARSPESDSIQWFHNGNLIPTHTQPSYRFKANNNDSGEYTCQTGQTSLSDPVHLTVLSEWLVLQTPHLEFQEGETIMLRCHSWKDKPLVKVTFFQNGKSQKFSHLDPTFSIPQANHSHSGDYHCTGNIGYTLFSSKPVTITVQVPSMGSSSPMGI

T2: cynomolgus FcγRIIa (CD32A) (cynomolgus)
T2 chain: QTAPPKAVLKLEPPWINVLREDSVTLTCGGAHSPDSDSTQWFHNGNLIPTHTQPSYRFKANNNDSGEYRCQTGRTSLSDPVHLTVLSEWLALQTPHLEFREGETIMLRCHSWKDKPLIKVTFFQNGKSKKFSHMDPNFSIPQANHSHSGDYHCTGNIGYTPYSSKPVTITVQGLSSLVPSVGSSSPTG

T3: cynomolgus FcRn (cynomolgus, UniProt Q8SPV9)
T3 chain 1: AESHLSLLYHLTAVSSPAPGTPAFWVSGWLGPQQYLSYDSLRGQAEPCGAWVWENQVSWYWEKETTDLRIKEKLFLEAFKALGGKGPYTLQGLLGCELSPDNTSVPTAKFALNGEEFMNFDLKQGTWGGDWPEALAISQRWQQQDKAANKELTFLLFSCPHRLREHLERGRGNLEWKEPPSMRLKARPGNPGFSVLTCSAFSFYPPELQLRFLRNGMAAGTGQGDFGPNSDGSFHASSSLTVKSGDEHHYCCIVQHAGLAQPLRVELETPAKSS
T3 chain 2: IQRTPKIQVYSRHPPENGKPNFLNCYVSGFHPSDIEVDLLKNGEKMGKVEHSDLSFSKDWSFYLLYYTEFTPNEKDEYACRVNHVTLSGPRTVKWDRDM

T4: murine FcRn (mouse, UniProt Q61559)
T4 chain 1: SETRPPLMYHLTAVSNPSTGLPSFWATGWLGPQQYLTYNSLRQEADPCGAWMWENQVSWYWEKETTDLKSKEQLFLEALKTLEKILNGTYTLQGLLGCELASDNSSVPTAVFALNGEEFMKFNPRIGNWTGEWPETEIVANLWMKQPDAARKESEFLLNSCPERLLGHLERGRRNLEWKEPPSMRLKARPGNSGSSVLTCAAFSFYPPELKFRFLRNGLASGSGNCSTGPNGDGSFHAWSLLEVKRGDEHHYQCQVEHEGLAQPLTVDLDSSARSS
T4 chain 2: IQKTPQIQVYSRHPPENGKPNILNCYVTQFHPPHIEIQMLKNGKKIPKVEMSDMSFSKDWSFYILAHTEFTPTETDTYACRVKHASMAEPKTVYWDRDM

T5: human FcγRI (CD64) (human, UniProt P12314)
T5 chain: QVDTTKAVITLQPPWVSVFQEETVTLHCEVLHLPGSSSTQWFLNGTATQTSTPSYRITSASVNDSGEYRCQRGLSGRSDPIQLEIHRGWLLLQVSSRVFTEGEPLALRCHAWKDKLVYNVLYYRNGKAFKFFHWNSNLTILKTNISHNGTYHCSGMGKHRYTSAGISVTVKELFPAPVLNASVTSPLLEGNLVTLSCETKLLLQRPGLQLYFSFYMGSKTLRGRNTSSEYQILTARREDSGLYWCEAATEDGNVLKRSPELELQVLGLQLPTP

T6: murine FcγRI (mouse, UniProt P26151)
T6 chain: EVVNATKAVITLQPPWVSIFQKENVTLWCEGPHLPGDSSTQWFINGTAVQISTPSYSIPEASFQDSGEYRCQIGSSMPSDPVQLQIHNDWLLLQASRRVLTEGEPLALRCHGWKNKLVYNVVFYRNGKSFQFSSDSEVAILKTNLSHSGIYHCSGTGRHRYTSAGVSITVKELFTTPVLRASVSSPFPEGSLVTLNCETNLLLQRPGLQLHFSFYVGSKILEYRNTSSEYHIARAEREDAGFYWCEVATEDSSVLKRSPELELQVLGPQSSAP

T7: murine FcγRIII (mouse, UniProt P08508)
T7 chain: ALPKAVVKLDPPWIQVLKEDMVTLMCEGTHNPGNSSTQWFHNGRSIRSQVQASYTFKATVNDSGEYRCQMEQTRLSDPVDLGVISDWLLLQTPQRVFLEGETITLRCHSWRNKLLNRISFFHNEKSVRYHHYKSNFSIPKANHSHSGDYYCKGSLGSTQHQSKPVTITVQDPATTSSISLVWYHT

T8: murine FcγRIIb (mouse, UniProt P08101)
T8 chain: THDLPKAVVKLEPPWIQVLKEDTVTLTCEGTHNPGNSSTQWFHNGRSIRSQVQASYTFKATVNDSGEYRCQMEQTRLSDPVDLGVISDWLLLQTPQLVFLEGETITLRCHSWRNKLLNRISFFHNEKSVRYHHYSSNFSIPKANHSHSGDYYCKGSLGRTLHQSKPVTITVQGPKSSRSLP

T9: human FcγRIIIb (NA1) CD16B (human, UniProt O75015)
T9 chain: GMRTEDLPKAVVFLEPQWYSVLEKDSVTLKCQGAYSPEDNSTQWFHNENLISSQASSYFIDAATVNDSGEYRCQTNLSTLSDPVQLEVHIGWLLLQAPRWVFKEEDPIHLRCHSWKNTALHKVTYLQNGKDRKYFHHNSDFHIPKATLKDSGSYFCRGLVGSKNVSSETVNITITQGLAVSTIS

T10: human FcγRIIc (CD32C) (human, UniProt P31995)
T10 chain: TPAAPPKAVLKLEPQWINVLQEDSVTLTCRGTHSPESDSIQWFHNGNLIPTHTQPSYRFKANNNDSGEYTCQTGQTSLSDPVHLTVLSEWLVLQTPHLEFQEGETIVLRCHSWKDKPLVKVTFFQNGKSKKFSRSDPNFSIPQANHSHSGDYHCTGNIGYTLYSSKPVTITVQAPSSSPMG

T11: human FcγRIIb (CD32B) (human, UniProt P31994)
T11 chain: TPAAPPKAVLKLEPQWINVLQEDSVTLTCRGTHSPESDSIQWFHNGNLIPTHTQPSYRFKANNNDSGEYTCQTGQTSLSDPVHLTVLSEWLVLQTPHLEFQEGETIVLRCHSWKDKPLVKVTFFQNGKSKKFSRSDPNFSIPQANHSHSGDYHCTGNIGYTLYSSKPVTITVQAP

T12: murine FcγRIV (CD16-2) (mouse, UniProt A0A0B4J1G0)
T12 chain: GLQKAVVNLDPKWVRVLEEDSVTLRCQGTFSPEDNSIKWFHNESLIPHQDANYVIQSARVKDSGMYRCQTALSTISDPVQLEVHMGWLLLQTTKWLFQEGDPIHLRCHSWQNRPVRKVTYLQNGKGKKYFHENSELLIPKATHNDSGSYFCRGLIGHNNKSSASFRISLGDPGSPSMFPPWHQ


What was measured:
[1] = target: T1, human FcγRIIa (CD32A); test: SPR
[2] = target: T2, cynomolgus FcγRIIa (CD32A); test: SPR
[3] = target: human FcRn (human, UniProt P55899); test: SPR, pH 6.0
[4] = target: T3, cynomolgus FcRn; test: SPR, pH 6.0
[5] = target: T4, murine FcRn; test: SPR, pH 6.0
[6] = target: T5, human FcγRI (CD64); test: SPR
[7] = target: T6, murine FcγRI; test: SPR
[8] = target: T7, murine FcγRIII; test: SPR
[9] = target: T8, murine FcγRIIb; test: SPR
[10] = target: T9, human FcγRIIIb (NA1) CD16B; test: SPR
[11] = target: T10, human FcγRIIc (CD32C); test: SPR
[12] = target: T11, human FcγRIIb (CD32B); test: SPR
[13] = target: T12, murine FcγRIV (CD16-2); test: SPR

Binder | binding result [1] | binding result [2] | Kd [3] [nM] | Kd [4] [nM] | Kd [5] [nM] | binding result [6] | binding result [7] | binding result [8] | binding result [9] | binding result [10] | binding result [11] | binding result [12] | binding result [13]
scFv-IgAb_02 (full) (antibody) chain 1: QVQLVQSGAEVKKPGESLKVSCKASGYTFTSYYMHWVRQAPGQGLEWMGIINPSGGSTSYAQKFQGRVTMTRDTSTSTVYMELSSLRSEDTAVYYCARGSAYYYDFADYWGQGTLVTVSSASTKGPSVFPLAPSSKSTSGGTAALGCLVKDYFPEPVTVSWNSGALTSGVHTFPAVLQSSGLYSLSSVVTVPSSSLGTQTYICNVNHKPSNTKVDKKVEPKSCDKTHTCPPCPAPEFEGGPSVFLFPPKPKDTLMISRTPEVTCVVVAVSHEDPEVKFNWYVDGVEVHNAKTKPREEQYNSTYRVVSVLTVLHQDWLNGKEYKCKVSNKALPAPIEKTISKAKGQPREPQVYTLPPSREEMTKNQVSLTCLVKGFYPSDIAVEWESNGQPENNYKTTPPVLDSDGSFFLYSKLTVDKSRWQQGNVFSCSVMHEALHNHYTQKSLSLSPGGGGGSGGGGSQVQLQESGPGLVKPSETLSLTCTVSGGSVSSGSYYWSWIRQPPGKGLEWIGYIYYSGSTNYNPSLKSRVTISVDTSKNQFSLKLSSVTAADTAVYYCARNPISIPAFDIWGQGTMVTVSSGGSGGSGGSGGSGGSGGSQPVLTQPPSVSVAPGKTARITCGGNNIGSKSVHWYQQKPGQAPVLVIYYDSDRPSGIPERFSGSNSGNTATLTISRVEAGDEADYYCQVWDTSSDHVLFGGGTKLTVL chain 2: SYVLTQPSSVSVAPGQTATISCGGHNIGSKNVHWYQQRPGQSPVLVIYQDNKRPSGIPERFSGSNSGNTATLTISGTQAMDEADYYCQVWDNYSVLFGGGTKLTVLGQPKAAPSVTLFPPSSEELQANKATLVCLISDFYPGAVTVAWKADSSPVKAGVETTTPSKQSNNKYAASSYLSLTPEQWKSHRSYSCQVTHEGSTVEKTVAPTECS | no binding | no binding | 430 | 842 | 180 | no binding | no binding | no binding | no binding | no binding | no binding | no binding | no binding
Bi-scFv-Fc_02 (full) (antibody) chain 1: SYVLTQPSSVSVAPGQTATISCGGHNIGSKNVHWYQQRPGQSPVLVIYQDNKRPSGIPERFSGSNSGNTATLTISGTQAMDEADYYCQVWDNYSVLFGGGTKLTVLGGSGGSGGSGGSGGSGGSGGSQVQLVQSGAEVKKPGESLKVSCKASGYTFTSYYMHWVRQAPGQGLEWMGIINPSGGSTSYAQKFQGRVTMTRDTSTSTVYMELSSLRSEDTAVYYCARGSAYYYDFADYWGQGTLVTVSSEPKSCDKTHTCPPCPAPEFEGGPSVFLFPPKPKDTLMISRTPEVTCVVVAVSHEDPEVKFNWYVDGVEVHNAKTKPREEQYNSTYRVVSVLTVLHQDWLNGKEYKCKVSNKALPAPIEKTISKAKGQPREPQVYTLPPSREEMTKNQVSLTCLVKGFYPSDIAVEWESNGQPENNYKTTPPVLDSDGSFFLYSKLTVDKSRWQQGNVFSCSVMHEALHNHYTQKSLSLSPGGGGGSGGGGSQVQLQESGPGLVKPSETLSLTCTVSGGSVSSGSYYWSWIRQPPGKGLEWIGYIYYSGSTNYNPSLKSRVTISVDTSKNQFSLKLSSVTAADTAVYYCARNPISIPAFDIWGQGTMVTVSSGGSGGSGGSGGSGGSGGSQPVLTQPPSVSVAPGKTARITCGGNNIGSKSVHWYQQKPGQAPVLVIYYDSDRPSGIPERFSGSNSGNTATLTISRVEAGDEADYYCQVWDTSSDHVLFGGGTKLTVL chain 2: SYVLTQPSSVSVAPGQTATISCGGHNIGSKNVHWYQQRPGQSPVLVIYQDNKRPSGIPERFSGSNSGNTATLTISGTQAMDEADYYCQVWDNYSVLFGGGTKLTVLGGSGGSGGSGGSGGSGGSGGSQVQLVQSGAEVKKPGESLKVSCKASGYTFTSYYMHWVRQAPGQGLEWMGIINPSGGSTSYAQKFQGRVTMTRDTSTSTVYMELSSLRSEDTAVYYCARGSAYYYDFADYWGQGTLVTVSSEPKSCDKTHTCPPCPAPEFEGGPSVFLFPPKPKDTLMISRTPEVTCVVVAVSHEDPEVKFNWYVDGVEVHNAKTKPREEQYNSTYRVVSVLTVLHQDWLNGKEYKCKVSNKALPAPIEKTISKAKGQPREPQVYTLPPSREEMTKNQVSLTCLVKGFYPSDIAVEWESNGQPENNYKTTPPVLDSDGSFFLYSKLTVDKSRWQQGNVFSCSVMHEALHNHYTQKSLSLSPGGGGGSGGGGSQVQLQESGPGLVKPSETLSLTCTVSGGSVSSGSYYWSWIRQPPGKGLEWIGYIYYSGSTNYNPSLKSRVTISVDTSKNQFSLKLSSVTAADTAVYYCARNPISIPAFDIWGQGTMVTVSSGGSGGSGGSGGSGGSGGSQPVLTQPPSVSVAPGKTARITCGGNNIGSKSVHWYQQKPGQAPVLVIYYDSDRPSGIPERFSGSNSGNTATLTISRVEAGDEADYYCQVWDTSSDHVLFGGGTKLTVL | no binding | no binding | 410 | 268 | 121 | no binding | no binding | no binding | no binding | no binding | no binding | no binding | no binding
